Earlier results, collected in article PMC2820514.

Molecular target: CaMKII monomer (UniProt Q9UQM7)

Kd: 1.3 µM
Substance: CaMKII monomer (from UniProt Q9UQM7)
